The values that follow come from patent US20240010695A1 (ASHER BIOTHERAPEUTICS, published 2024).

In this assay the target is Wild type IL-10 dimer fused to xhCD8b (format E) (Homo sapiens (Human), UniProt P22301 19-178; P22301 19-178). The assay is described as follows: SPR 37 C; fusion captured via Fc, IL-10RA ECD analyte. As for the experimental part:
To determine the affinities with IL-10RA, antibody or fusion proteins were captured onto the CM4 sensor chip via their Fc by covalently anti-human Fc antibody (Southern Biotech, Catalog No. 2081-01). Protein was not captured on flow cell 1 to serve as a reference surface. In-house generated human IL-10RA ECD, diluted in HBS-P+ buffer supplemented with 1 g/L BSA, at concentrations of 8, 40, 200, 1000, and 5000 nM, or buffer was flowed over the surface-captured fusion protein for 2 minutes at 30 μL/min. Dissociation was monitored for 4-5 minutes, and the anti-hIgG-Fc surface was regenerated with three 30-seconds injections of 75 mM phosphoric acid between analysis cycles. Binding data were analyzed by Biacore® Evaluation Software version 3.2 using a 1:1 Langmuir with mass transport model or by steady-state affinity analysis.
As shown in Example 3, fusion proteins comprising CD8 antibodies and IL-10 monomer polypeptides selectively activated CD8+ T cells over monocytes and CD4+ T cells. […] Amino acid substitutions and the amino acid sequences of representative mutant monomer IL-10 polypeptides that were evaluated are shown in Table 4A. […] In all cases, the IL-10 polypeptide was expressed as a fusion protein, with the antibody binding domain specified in column 2, and the format shown in parentheses, based on the schematics depicted in FIG. 6.

Chain of Wild type IL-10 dimer fused to xhCD8b (format E) (P22301 19-178 limits assumed, chain 1 of 2): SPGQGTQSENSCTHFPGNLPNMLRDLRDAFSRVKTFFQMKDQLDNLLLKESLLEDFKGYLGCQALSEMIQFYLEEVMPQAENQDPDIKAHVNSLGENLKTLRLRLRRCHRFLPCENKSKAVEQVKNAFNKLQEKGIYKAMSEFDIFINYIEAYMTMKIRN
Chain of Wild type IL-10 dimer fused to xhCD8b (format E) (P22301 19-178 limits assumed, chain 2 of 2): as the sequence (P22301 19-178 limits assumed, chain 1 of 2) above

B1: human IL-10RA ECD (receptor)
chain: HGTELPSPPSVWFEAEFFHHILHWTPIPNQSESTCYEVALLRYGIESWNSISNCSQTLSYDLTAVTLDLYHSNGYRARVRAVDGSRHSNWTVTNTRFSVDEVTLTVGSVNLEIHNGFILGKIQLPRPKMAPANDTYESIFSHFREYEIAIRKVPGNFTFTHKKVKHENFSLLTSGEVGEFCVQVKPSVASRSNKGMWSKEECISLTRQYFTVTN
notes: In-house generated ECD; A biotinylated form held the fusions on the chip in the IL-10RB assay
For B1, binding was characterised by a dissociation constant (Kd) of 4.5 nM.
